Data on one substance can be found in paper PMC6205638, “Exploring natural genetic variation in tomato sucrose synthases on the basis of increased kinetic properties” (PLoS ONE, 2018).

The target of this assay is Tomato sucrose synthase SuSy3-haplotype#1 (cv Moneymaker) (S. lycopersicum cv Moneymaker). As to the kind of experiment: native gel or EMSA; Native PAGE on Mini-PROTEAN TGX gel 4-20% of the IMAC-purified product; size estimated against a prestained protein ladder.

Usually stoichiometry N stands for a count of units in the complex or per binding partner.

Turning to “Tomato sucrose synthase SuSy3-haplotype#1 (cv Moneymaker) (enzyme)”, the stoichiometry N was 4.
